Experimental data reported in patent publication EP4792830A2.
Like-named read-outs stand apart in the source and are kept apart here.

What was measured:
[1] = target: endogenous TFPI in human plasma (human), P10646; experiment: cell-based or functional assay
[2] = target: endogenous TFPI in human plasma (human), P10646; experiment: cell-based or functional assay; remark: listed apart in the source

Binder | TGA Velocity Index at 20 nM [1] | TGA Velocity Index at 20 nM [2] | Dilute PT EC50 [2] | EC50 (dilute prothrombin time, clotting time) [2] | TGA Velocity EC50 [2]
4D8.b1 (antibody, mouse IgG1, kappa) heavy: EVLLQQSGPELVKPGASVKIPCKASGYTFTDYNLDWVKQSHGKSLEWIGDINPINGATLYNQKFKGKATLTVDQSSSTAYMELRSLTSEDTAVYYCSIYYGDYDAMDYWGQGASVTVSSAKTTPPSVYPLAPGSAAQTNSMVTLGCLVKGYFPEPVTVTWNSGSLSSGVHTFPAVLQSDLYTLSSSVTVPSSTWPSETVTCNVAHPASSTKVDKKIVPRDCGCKPCICTVPEVSSVFIFPPKPKDVLTITLTPKVTCVVVDISKDDPEVQFSWFVDDVEVHTAQTQPREEQFNSTFRSVSELPIMHQDWLNGKEFKCRVNSAAFPAPIEKTISKTKGRPKAPQVYTIPPPKEQMAKDKVSLTCMITDFFPEDITVEWQWNGQPAENYKNTQPIMDTDGSYFVYSKLNVQKSNWEAGNTFTCSVLHEGLHNHHTEKSLSHSPGK light: DIVMTQSHKFMSTSVGDRVSITCKASQDVHTAVAWYQQKPGQSPRLLIYWASTRHTGVPDRFTGCGSGTDYTLTISSVQAEDLALYYCQQHYTTPYTFGGGTKLEMKADAAPTVSIFPPSSEQLTSGGASVVCFLNNFYPKDINVKWKIDGSERQNGVLNSWTDQDSKDSTYSMSSTLTLTKDEYERHNSYTCEATHKTSTSPIVKSFNRNEC | 26.3 | 13.5 | – | – | –
hz4D8 (antibody, human IgG1, kappa) heavy: EVQLVESGGGLVQPGGSLRLSCAASGYTFTDYNLDWVRQAPGKGLEWVADINPINGATLYNQKFKGRFTISRDQAKNSLYLQMNSLRAEDTAVYYCARYYGDYDAMDYWGQGTLVTVSSASTKGPSVFPLAPSSKSTSGGTAALGCLVKDYFPEPVTVSWNSGALTSGVHTFPAVLQSSGLYSLSSVVTVPSSSLGTQTYICNVNHKPSNTKVDKKVEPKSCDKTHTCPPCPAPEAAGAPSVFLFPPKPKDTLMISRTPEVTCVVVDVSHEDPEVKFNWYVDGVEVHNAKTKPREEQYNSTYRVVSVLTVLHQDWLNGKEYKCKVSNKALPAPIEKTISKAKGQPREPQVYTLPPSREEMTKNQVSLTCLVKGFYPSDIAVEWESNGQPENNYKTTPPVLDSDGSFFLYSKLTVDKSRWQQGNVFSCSVMHEALHNHYTQKSLSLSPG light: DIQMTQSPSSLSASVGDRVTITCKASQDVHTAVAWYQQKPGKAPKLLIYWASTRHTGVPSRFSGSGSGTDYTLTISSLQPEDFATYYCQQHYTTPYTFGQGTKLEIKRTVAAPSVFIFPPSDEQLKSGTASVVCLLNNFYPREAKVQWKVDNALQSGNSQESVTEQDSKDSTYSLSSTLTLSKADYEKHKVYACEVTHQGLSSPVTKSFNRGEC | – | 15.7 | 0.47 nM | 0.47 nM | 3.9 nM
TFPI-24 (antibody, human IgG1, lambda) heavy: EVQLVESGGGSVQPGRSLRLSCAVSGLTIDNYAMQWVRQRPGKGLEWVSGISGNSRSIGYADSVKGRLTISRDNAKNSLYLQIDSLRADDTALYYCAIFLHESDYWGQGTLVTVSSASTKGPSVFPLAPSSKSTSGGTAALGCLVKDYFPEPVTVSWNSGALTSGVHTFPAVLQSSGLYSLSSVVTVPSSSLGTQTYICNVNHKPSNTKVDKKVEPKSCDKTHTCPPCPAPEAAGAPSVFLFPPKPKDTLMISRTPEVTCVVVDVSHEDPEVKFNWYVDGVEVHNAKTKPREEQYNSTYRVVSVLTVLHQDWLNGKEYKCKVSNKALPAPIEKTISKAKGQPREPQVYTLPPSREEMTKNQVSLTCLVKGFYPSDIAVEWESNGQPENNYKTTPPVLDSDGSFFLYSKLTVDKSRWQQGNVFSCSVMHEALHNHYTQKSLSLSPG light: not shown | – | 23.2 | – | 0.57 nM | –
TFPI-118 (antibody, human IgG1, lambda) heavy: EVQLVESGGGLVQPGRSLRLSCAVSGLTIDNYAMQWVRQAPGKGLEWVSGISGNSRSIGYADSVKGRFTISRDNAKNSLYLQMNSLRAEDTALYYCAIFLHESDYWGQGTLVTVSSASTKGPSVFPLAPSSKSTSGGTAALGCLVKDYFPEPVTVSWNSGALTSGVHTFPAVLQSSGLYSLSSVVTVPSSSLGTQTYICNVNHKPSNTKVDKKVEPKSCDKTHTCPPCPAPEAAGAPSVFLFPPKPKDTLMISRTPEVTCVVVDVSHEDPEVKFNWYVDGVEVHNAKTKPREEQYNSTYRVVSVLTVLHQDWLNGKEYKCKVSNKALPAPIEKTISKAKGQPREPQVYTLPPSREEMTKNQVSLTCLVKGFYPSDIAVEWESNGQPENNYKTTPPVLDSDGSFFLYSKLTVDKSRWQQGNVFSCSVMHEALHNHYTQKSLSLSPG light: not shown | – | – | 1.16 nM | 1.16 nM | 7.72 nM
2A8-200 (antibody, human IgG1, lambda) heavy: QVQLVESGGGLVQPGGSLRLSCAASGFTFRSYGMDWVRQAPGKGLEWVSSIRGSRSSTYYADSVKGRFTISRDNSKNTLYLQMNSLRAEDTAVYYCARLYRYWFDYWGQGTLVTVSSASTKGPSVFPLAPSSKSTSGGTAALGCLVKDYFPEPVTVSWNSGALTSGVHTFPAVLQSSGLYSLSSVVTVPSSSLGTQTYICNVNHKPSNTKVDKKVEPKSCDKTHTCPPCPAPEAAGAPSVFLFPPKPKDTLMISRTPEVTCVVVDVSHEDPEVKFNWYVDGVEVHNAKTKPREEQYNSTYRVVSVLTVLHQDWLNGKEYKCKVSNKALPAPIEKTISKAKGQPREPQVYTLPPSREEMTKNQVSLTCLVKGFYPSDIAVEWESNGQPENNYKTTPPVLDSDGSFFLYSKLTVDKSRWQQGNVFSCSVMHEALHNHYTQKSLSLSPG light: DIELTQPPSVSVAPGQTARISCSGDNLRNYYAHWYQQKPGQAPVVVIFYDVNRPSGIPERFSGSNSGNTATLTISGTQAEDEADYYCQSWWDGVPVFGGGTKLTVLGQPKAAPSVTLFPPSSEELQANKATLVCLISDFYPGAVTVAWKADSSPVKAGVETTTPSKQSNNKYAASSYLSLTPEQWKSHRSYSCQVTHEGSTVEKTVAPTECS | – | – | 1 nM | – | –
